Assay results published in publication PMC7397135.

Biological target: recombinant heterodimer of human FCGRT/B2M (human neonatal IgG Fc receptor) (human) (UniProt P55899)
Experiment: electrochemical receptor sensor (amperometric I-T, time-current method); hFcγRn adsorbed in two layers on a gold nanoparticle-chitosan glassy carbon electrode with thionine and HRP as signal amplification, blocked with BSA; IgG in solution; constant voltage -0.38 V; data collected after 20 s; 8 mmol/L H2O2 in the test substrate; ultrapure water as blank; change rate of response current against IgG concentration, Ka by the double reciprocal (Lineweaver-Burk) method

Row | Substance | Ka (interconnected allosteric constant) [mol/L]
1 | Bovine IgG (antibody) | 1.59e-22
2 | Donkey IgG (antibody) | 1.14e-21
3 | Quail IgY (antibody) | 8.61e-20
4 | Sheep IgG (antibody) | 2.17e-21

The next lines start with the values.

Row | Ka (interconnected allosteric constant) [mol/L] | Substance
5 | 1.2e-22 | Horse IgG (antibody)
6 | 1.02e-23 | Human IgG (antibody)
7 | 2.29e-21 | Rabbit IgG (antibody)
